Data on five molecules can be found in paper PMC5012862, “Structural characterization of encapsulated ferritin provides insight into iron storage in bacterial nanocompartments” (eLife, 2016).

Numbering of substitutions follows the chain as printed. Names and notes keep the numbering of the source.

The target of series [1] is EncFtnsH H65A mutant (Rhodospirillum rubrum) (UniProt Q2RVS1). The series can be described thus: crystal structure; hanging drop, 292 K, 0.14 M calcium acetate, 15% PEG 3350; cryoprotectant with 1 mM FeSO4; three decamers in the asymmetric unit; mutants crystallized in the same manner.
Series [2] shares this target. The experiment in a line: native MS; nESI, 100 mM ammonium acetate pH 8.0, about 5 uM protein; apo protein made in minimal medium, no Fe2+ added.
The target in a further series is Q2RVS1. The experiment in a line: SEC; analytical gel filtration, Superdex 200 PC 3.2/30 (Table 3 caption: 10/300 GL), 15 C, GF buffer; 90 uM EncFtnsH monomer or decamer fractions, alone or after 2 h at room temperature with one molar equivalent of metal salt. In general terms: In gel filtration, larger molecules generally elute earlier.
Series [3] concerns the molecule itself. The experiment in a line: SEC; preparative Superdex 200 16/60 after nickel affinity; 50 mM Tris-HCl pH 8.0, 150 mM NaCl; protein from E. coli grown in SeMet medium + 1 mM Fe(NH4)2(SO4)2, in MM, or in MM + 1 mM Fe(NH4)2(SO4)2.
Series [4] deals with the molecule itself. The series can be described thus: SEC; analytical gel filtration of EncFtnsH monomer at 700 uM, compared with 90 uM; no metal added.
Series [5] concerns the molecule itself. The experiment in a line: SEC; preparative Superdex 200 16/60 after nickel affinity; 50 mM Tris-HCl pH 8.0, 150 mM NaCl; protein from E. coli grown in SeMet medium + 1 mM Fe(NH4)2(SO4)2, in MM, or in MM + 1 mM Fe(NH4)2(SO4)2. This is another data set of the same source.
Series [6] concerns the molecule itself. The series can be described thus: SEC; size-exclusion chromatography of the purified full-length EncFtn; column and buffer not told for this protein.

As usually defined, the stoichiometry N is a count of units in the complex or per binding partner. As to “EncFtnsH H65A mutant (from UniProt Q2RVS1 1-96) (domain or fragment)”, the values for the stoichiometry N in series [1] and in series [2] were 10 and 2, respectively.

B1: EncFtnsH: truncated C-terminal hexahistidine-tagged variant of Rhodospirillum rubrum encapsulated ferritin (EncFtn, Rru_A0973), amino acids 1-96 plus the tag (domain or fragment, UniProt Q2RVS1 1-96, looked up)
chain: MAQSSNSTHEPLEVLKEETVNRHRAIVSVMEELEAVDWYDQRVDASTDPELTAILAHNRDEEKEHAAMTLEWLRRNDAKWAEHLRTYLFTEGPITA
notes: amino acids 1-96 of the 140-residue protein; Monomer predicted mass 13,194.53 Da with the tag; also called wild-type EncFtnsH; WT; source: for crystals anion exchange and SEC; not shown: His6, C-terminal, kept
On to B1, for which, in the series with Q2RVS1, the decamer/monomer peak area ratio (decamer fractions, no metal added, day 1) is 11.2; the decamer/monomer peak area ratio (monomer fractions, no metal added, day 1) was determined as 0.1; the decamer/monomer peak area ratio (monomer fractions, no metal added, day 2) was 0.4; the decamer/monomer peak area ratio (monomer fractions, no metal added, day 3) was 0.3. Also, in the series with Q2RVS1, the decamer/monomer peak area ratio (with Ca acetate) stood at 0.2, the decamer/monomer peak area ratio (with CoCl2) came out at 1.2, the decamer/monomer peak area ratio (with Fe(NH4)2(SO4)2) turned out to be 0.8 and the decamer/monomer peak area ratio (with FeCl3) is 0.1. Also, in the series with Q2RVS1, the decamer/monomer peak area ratio (with FeSO4-HCl) worked out at 1, the decamer/monomer peak area ratio (with MgSO4) worked out at 0.2, the decamer/monomer peak area ratio (with MnCl2) is 0.1 and the decamer/monomer peak area ratio (with ZnSO4) is 2.3. Moreover, the “stoichiometry N” value in series [3] was 10. In addition, the “stoichiometry N” value in series [4] was 2. Also, in series [5], the “decamer/monomer peak area ratio (cells grown in MM + 1 mM Fe(NH4)2(SO4)2)” value was found to be 4.5.

B2: EncFtnsH E32A mutant (domain or fragment, Rhodospirillum rubrum, UniProt Q2RVS1 1-96, looked up)
chain: B1 chain with E32A
notes: amino acids 1-96, with E32A; Single mutant of EncFtnsH; source: E. coli BL21(DE3) grown in MM or MM supplemented with iron; purified (Superdex 200 SEC); not shown: His6, C-terminal, kept
For B2, in series [3], the “stoichiometry N” value was 10.

B3: EncFtnsH E62A mutant (domain or fragment, Rhodospirillum rubrum, UniProt Q2RVS1 1-96, looked up)
chain: B1 chain with E62A
notes: amino acids 1-96, with E62A; Single mutant of EncFtnsH; source: E. coli BL21(DE3) grown in MM or MM supplemented with iron; purified (Superdex 200 SEC); not shown: His6, C-terminal, kept
On to B3, for which, in series [3], the “stoichiometry N” value turned out to be 10.

B4: Rhodospirillum rubrum EncFtn, full-length sequence (140 amino acids), purified alone (natural protein, UniProt Q2RVS1 1-140, looked up)
chain: MAQSSNSTHEPLEVLKEETVNRHRAIVSVMEELEAVDWYDQRVDASTDPELTAILAHNRDEEKEHAAMTLEWLRRNDAKWAEHLRTYLFTEGPITAIEAADTAGEGSGGDAAKGATAQGDGSLGIGSLKGEAALARPPRL
notes: primers are in Supplementary file 2; also called encapsulated ferritin; source: E. coli, recombinant, purified (SEC)
In the case of B4, in series [6], the binding result was “binds”.
